Results published in patent US20250270304A1.
Blank lines part the entries; values can stand above or below the binder they belong to.

Assays:
Experiment in all cases: ELISA, coated antigen, OD450
[1] = biological target: T1, Activin B (Homo sapiens (Human)) (UniProt P09529)
T1 sequence: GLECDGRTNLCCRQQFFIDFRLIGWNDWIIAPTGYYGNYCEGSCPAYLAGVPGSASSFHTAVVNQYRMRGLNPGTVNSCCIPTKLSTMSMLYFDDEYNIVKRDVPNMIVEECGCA

[2] = biological target: T2, Inhibin A (Homo sapiens (Human)) (UniProt P05111)
T2 sequence 1: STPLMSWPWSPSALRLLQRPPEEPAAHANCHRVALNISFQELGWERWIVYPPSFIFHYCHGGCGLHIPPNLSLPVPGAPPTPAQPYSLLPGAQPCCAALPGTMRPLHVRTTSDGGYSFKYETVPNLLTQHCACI
T2 sequence 2: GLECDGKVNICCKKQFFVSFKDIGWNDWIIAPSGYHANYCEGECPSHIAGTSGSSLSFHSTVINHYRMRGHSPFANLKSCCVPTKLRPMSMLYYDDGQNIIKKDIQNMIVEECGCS

Mature Activin A (human) = Mature Activin A (human) (UniProt P08476)

fold-change of OD 450 over negative control (BSA) [1]: 1.17 fold
fold-change of OD 450 over negative control (BSA) [2]: 1.38 fold
B1: AB439 (antibody, IgG1, V domains shown)
VH: EVQLVQSGAEVKKPGASVKVSCKASGYTYTGYRISWVRQAPGQGLEWMGWIDPKSGRTNYAQKLQGRGTMTTDPSTSTAYMELRSLRSDDTAVYYCAREVKQWLVPGRGVYWFDPWGQGTLVTVSS
VL: ESALTQPASVSGSPGQSITISCTGTNIGLRSVSWYQQHPGKAPKLMIYDTNIRSSGVSNRFSGSKSGNTASLTISGLQAEDEADYYCSSYTSSSTDVFGGGTKLTVL

fold-change of OD 450 over negative control (BSA) (Mature Activin A (human)): 1.39 fold
B2: AB330 (antibody, IgG1, V domains shown)
VH: QVQLVQSGAEVKKPGASVKVSCKVSGYPSPATISWVRQAPGKGLEWMGWMNPKSGYTNYAQKFQGRVTMTEDTSTDTAYMELSSLKSEDTAVYYCATLHGSGLAFDIWGQGTMVTVSS
VL: DIQMTQSPSSVSASVGDRVTITCRASQDIKSDLAWYQQKPGKAPKLLIYRASARESGVPSRFSGSGSGTDFTLTISSLQPEDFANYYCQQYRSFPWSFGGGTKVEIK
